± gives the uncertainty stated by the source.
Assay: self-splicing fitness, log relative to wild type (ln ratio); higher = more splicing; Tetrahymena group I intron in knt gene, E. coli kanamycin selection, DiMSum; sequences stand for … in CUCUCU…GGAGGGAAAAGUUAUCAGGCAUGCACCUGGUAGCUAGUCUUUAAACCAAUAGAUUGCAUCGGUUUAAAAGGCAAGACCGUCAAAUUGCGGGAAAGGGGUCAACAGCCGUUCAGUACCAAGUCUCAGGGGAAACUUUGAGAUGGCCUUGCAAAGGGUAUGGUAAUAAGCUGACGGACAUGGUCCUAACCACGCAGCCAAGUCCUAAGUCAACAGAUCUUCUGUUGAUAUGGAUGCAGUUCACAGACUAAAUGUCGGUCGGGGAAGAUGUAUUCUUCUCAUAAGAUAUAGUCGGACCUCUCCUUAAUGGGAGCUAGCGGAUGAAGUGAUGCAACACUGGAGCCGCUGGGAACUAAUUUGUAUGCGAAAGUAUAUUGAUUAGUUUUGGAGUACUCGUGGUCG
Outline: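 The eight P1ex-region nucleotides of an intron in the knt kanamycin-resistance gene on pET-22b(+) were all randomised and the library put into E. coli BL21(DE3). Six replicate transformations were grown overnight at 37°C or 30°C on LB agar with or without 25 μg/mL kanamycin, together with 100 μg/mL carbenicillin, 50 μM IPTG and 0.2% rhamnose. Colonies were pooled and amplicon-sequenced on an Illumina HiSeq 2500. Fitness from DiMSum is the error-weighted combination of wild-type-normalised replicate fold changes, kanamycin over none.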

| Sequence | self-splicing fitness (ln) (30 °C) | self-splicing fitness (ln) (37 °C) |
| --- | --- | --- |
| CUAAAGCAAUAUUACGCCUA | -3.27 ± 0.23 | – |
| AGCGAGCAAUAUUACGGAUC | -3.42 ± 0.33 | -1.44 ± 0.49 |
| UCUGAGCAAUAUUACGUUCA | -2.84 ± 0.18 | -2.87 ± 0.28 |
| UUCCAGCAAUAUUACGCGAC | -3.35 ± 0.24 | -0.902 ± 0.19 |
| AGCGAGCAAUAUUACGGGUG | -2.75 ± 0.24 | -1.21 ± 0.21 |
| CGCUAGCAAUAUUACGCGGU | -3.4 ± 0.26 | -2.39 ± 0.21 |
| CUUAAGCAAUAUUACGGUAC | -3.99 ± 0.36 | -3.27 ± 0.32 |
| CCCCAGCAAUAUUACGUCUC | -3.78 ± 0.16 | -3.61 ± 0.19 |
| GACAAGCAAUAUUACGAUUA | -0.415 ± 0.096 | -0.117 ± 0.1 |
| CUCUAGCAAUAUUACGAAGG | -2.01 ± 0.38 | -1.16 ± 0.32 |
| GUAAAGCAAUAUUACGAGCC | -2.51 ± 0.33 | -2.56 ± 0.26 |
| GUUCAGCAAUAUUACGUCAC | -1.78 ± 0.17 | -1.27 ± 0.17 |
| UUAAAGCAAUAUUACGGCUC | -0.0999 ± 0.18 | 0.714 ± 0.23 |
| GUUCAGCAAUAUUACGGAUA | -0.566 ± 0.13 | -0.413 ± 0.1 |
| GUUGAGCAAUAUUACGCAUU | -2.68 ± 0.2 | -2.45 ± 0.33 |
| UGUGAGCAAUAUUACGAUAA | -2.33 ± 0.16 | -1.92 ± 0.21 |
| GAAGAGCAAUAUUACGUCGU | -2.96 ± 0.21 | -2.24 ± 0.21 |
| UUGGAGCAAUAUUACGGUCA | -1.21 ± 0.16 | -2.65 ± 0.23 |
| CACGAGCAAUAUUACGUAAU | -3.8 ± 0.39 | -2 ± 0.27 |
| ACGGAGCAAUAUUACGUGCG | -2.63 ± 0.17 | -1.79 ± 0.18 |

| Sequence | self-splicing fitness (ln) (30 °C) | self-splicing fitness (ln) (37 °C) |
| --- | --- | --- |
| CGUGAGCAAUAUUACGAGGU | -0.426 ± 0.29 | -1.35 ± 0.31 |
| AUCUAGCAAUAUUACGUCGA | -1.39 ± 0.11 | -0.769 ± 0.12 |
| UCUUAGCAAUAUUACGCCUA | – | -2.71 ± 0.41 |
| CCUGAGCAAUAUUACGUCGU | -2.02 ± 0.43 | -2.06 ± 0.27 |
| ACAUAGCAAUAUUACGGUAA | -2.88 ± 0.15 | -1.52 ± 0.12 |
| CGUUAGCAAUAUUACGUUAA | -3.44 ± 0.23 | -3.24 ± 0.28 |
| UACCAGCAAUAUUACGCAAC | -2.85 ± 0.3 | -2.19 ± 0.27 |
| GUUUAGCAAUAUUACGGACC | -2.41 ± 0.35 | – |
| GUUGAGCAAUAUUACGAUUA | -1.94 ± 0.21 | -1.23 ± 0.22 |
| UAACAGCAAUAUUACGUAAC | -2.93 ± 0.17 | -1.62 ± 0.16 |
| AGGGAGCAAUAUUACGGCCU | -2.43 ± 0.22 | -1.41 ± 0.24 |
| CCACAGCAAUAUUACGUCUU | -3.88 ± 0.14 | -2.85 ± 0.12 |
| CUUAAGCAAUAUUACGUUGG | -2.67 ± 0.15 | -2.4 ± 0.14 |
| AAACAGCAAUAUUACGAUGU | -1.36 ± 0.088 | -0.715 ± 0.091 |
| UCAAAGCAAUAUUACGCAGG | -4.07 ± 0.2 | -2.2 ± 0.14 |
| GGCGAGCAAUAUUACGUAAC | -2.52 ± 0.19 | -0.781 ± 0.13 |
| ACGGAGCAAUAUUACGUAAA | – | -1.27 ± 0.35 |
| CCUAAGCAAUAUUACGAAGG | -3.55 ± 0.16 | -2.9 ± 0.2 |
| AAAAAGCAAUAUUACGAUCU | 0.127 ± 0.055 | 0.246 ± 0.075 |
| AUGGAGCAAUAUUACGGAAG | -3.24 ± 0.38 | – |

Reference: the supplement of paper PMC7877785
